Tests used:
Chimera #9 = biological target: T1, Chimera #9 (Homo sapiens (Human), UniProt P49961 1-510); experiment: FACS on CHO cells; Chimera 2 with human D150 ([..])
T1 construct: Expressed on CHO cells
T1 chain: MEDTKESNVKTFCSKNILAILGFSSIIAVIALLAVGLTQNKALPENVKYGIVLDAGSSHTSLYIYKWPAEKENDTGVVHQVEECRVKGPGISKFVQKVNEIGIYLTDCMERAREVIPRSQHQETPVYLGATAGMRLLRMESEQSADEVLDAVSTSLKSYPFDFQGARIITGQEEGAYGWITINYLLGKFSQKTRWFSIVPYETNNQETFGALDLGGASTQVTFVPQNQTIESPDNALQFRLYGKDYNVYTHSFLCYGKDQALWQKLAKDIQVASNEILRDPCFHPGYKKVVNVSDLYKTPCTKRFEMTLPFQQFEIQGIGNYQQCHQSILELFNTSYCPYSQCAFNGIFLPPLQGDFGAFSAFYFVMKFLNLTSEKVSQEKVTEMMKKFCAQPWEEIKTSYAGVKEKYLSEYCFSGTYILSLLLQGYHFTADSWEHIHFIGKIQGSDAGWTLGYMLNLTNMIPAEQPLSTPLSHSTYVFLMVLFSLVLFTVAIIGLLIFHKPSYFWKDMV
Procedure: (§1) The chimeras were expressed in CHO cells and the ability of anti-human CD39 antibodies to bind the chimeras tested via FACS. In brief, cells were washed and blocked in FACS buffer (PBS/2% FBS) for 30 min on ice. […] After 2 washes, cells were resuspended in FACS buffer and analyzed on BD Fortessa. Data was processed with FlowJo. Positive binding was scored as “yes” and lack of binding was scored as “NO” and examples of FACS plots used to generate this table are in FIGS. 14.F and 14.G.

Chimera #10 = biological target: T2, Chimera #10 (Homo sapiens (Human), UniProt P49961 1-510); experiment: FACS on CHO cells; Chimera 2 with human E153 ([..])
T2 construct: Expressed on CHO cells
T2 chain: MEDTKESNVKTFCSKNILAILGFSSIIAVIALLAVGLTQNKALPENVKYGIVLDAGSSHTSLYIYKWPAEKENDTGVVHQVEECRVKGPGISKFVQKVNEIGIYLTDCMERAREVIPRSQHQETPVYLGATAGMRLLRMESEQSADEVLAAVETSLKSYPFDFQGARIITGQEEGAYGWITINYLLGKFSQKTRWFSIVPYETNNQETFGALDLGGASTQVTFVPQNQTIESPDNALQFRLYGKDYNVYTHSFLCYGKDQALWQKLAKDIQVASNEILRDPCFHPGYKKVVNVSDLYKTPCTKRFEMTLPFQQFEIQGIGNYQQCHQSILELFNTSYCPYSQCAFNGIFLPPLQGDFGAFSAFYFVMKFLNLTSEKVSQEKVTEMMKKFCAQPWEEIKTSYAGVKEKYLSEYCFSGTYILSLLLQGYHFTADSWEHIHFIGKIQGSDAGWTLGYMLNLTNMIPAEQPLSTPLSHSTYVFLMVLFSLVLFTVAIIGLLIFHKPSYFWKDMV
Procedure: The chimeras were expressed in CHO cells and the ability of anti-human CD39 antibodies to bind the chimeras tested via FACS. In brief, cells were washed and blocked in FACS buffer (PBS/2% FBS) for 30 min on ice. […] After 2 washes, cells were resuspended in FACS buffer and analyzed on BD Fortessa. Data was processed with FlowJo.

Chimera #14 = biological target: T3, Chimera #14 (Homo sapiens (Human), UniProt P49961 1-510); experiment: FACS on CHO cells; human CD39 with mouse S153 and T154
T3 construct: Expressed on CHO cells
T3 sequence: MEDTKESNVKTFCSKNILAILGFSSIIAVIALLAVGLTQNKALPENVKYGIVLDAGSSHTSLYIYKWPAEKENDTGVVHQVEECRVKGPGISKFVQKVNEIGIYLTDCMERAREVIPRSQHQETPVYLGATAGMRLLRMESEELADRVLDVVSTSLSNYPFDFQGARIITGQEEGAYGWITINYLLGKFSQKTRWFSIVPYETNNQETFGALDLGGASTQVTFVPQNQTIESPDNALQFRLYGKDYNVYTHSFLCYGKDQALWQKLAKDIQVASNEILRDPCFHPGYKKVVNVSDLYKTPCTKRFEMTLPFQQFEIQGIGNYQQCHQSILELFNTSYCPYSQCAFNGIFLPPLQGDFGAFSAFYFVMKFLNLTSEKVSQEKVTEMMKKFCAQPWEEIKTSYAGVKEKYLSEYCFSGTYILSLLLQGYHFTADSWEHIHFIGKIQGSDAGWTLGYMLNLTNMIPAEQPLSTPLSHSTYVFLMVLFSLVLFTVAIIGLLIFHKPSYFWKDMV
Procedure: as §1

Measured: binding result

B1: 31901 (antibody, human IgG4 S228P, kappa, V domains shown)
VH: QVQLVQSGAEVKKPGSSVKVSCKASGGTFSSLPISWVRQAPGQGLEWMGGIGFGTANYAQKFQGRVTITADESTSTAYMELSSLRSEDTAVYYCARGGAKYAGRYGMDVWGQGTTVTVSS
VL: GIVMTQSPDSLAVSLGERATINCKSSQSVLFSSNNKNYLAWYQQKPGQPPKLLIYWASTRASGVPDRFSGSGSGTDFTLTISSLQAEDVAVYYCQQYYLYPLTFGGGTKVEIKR
no binding (tested: 15 ug/ml): all assays above

B2: 31905 (antibody, human IgG4 S228P, kappa, V domains shown)
VH: QVQLVQSGAEVKKPGSSVKVSCKASGGTFPSNAISWVRQAPGQGLEWMGGIGFGTANYAQKFQGRVTITADESTSTAYMELSSLRSEDTAVYYCARGGAKYARTYGMDVWGQGTTVTVSS
VL: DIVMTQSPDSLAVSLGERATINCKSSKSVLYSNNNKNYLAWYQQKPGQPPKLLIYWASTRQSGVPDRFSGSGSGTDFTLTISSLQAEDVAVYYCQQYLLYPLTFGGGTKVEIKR
no binding (tested: 15 ug/ml): all assays above
